According to patent US20140228277A1 (Genentech, published 2014):
Positions of bridges follow the written chain, without caps; N, C: chain ends. Non-standard residues stand in square brackets, D forms with d. No end group written: not given here. Cit = NC(=O)NCCC[C@H](N)C(=O)O; Orn = NCCC[C@H](N)C(=O)O

Key:
[1] = biological target: T1, recombinant human BACE1 (rhBACE1) (human, UniProt P56817 22-457, limits assumed); experiment: spot phage ELISA, signal on BACE1 over signal on BSA
Protocol: After 4 rounds of binding selection, individual phage clones were analyzed in a high-throughput spot phage ELISA (Sidhu, S. S. et al. (2000) Methods Enzymol 328: 333-63) using plate-immobilized BACE1 as the target. The binding signal of the same phage particle to BSA was detected as non-specific binding noise. Clones with phage binding signal to target over 0.5 and signal/noise ratio>3 were considered to be positive clones and were subjected to DNA sequence analysis.

[2] = biological target: T1, recombinant human BACE1 (rhBACE1); experiment: spot phage ELISA, plate-immobilized BACE1 against BSA
[3] = biological target: T1, recombinant human BACE1 (rhBACE1); experiment: cell-based or functional assay
[4] = biological target: T1, recombinant human BACE1 (rhBACE1); experiment: FP competition binding; 12 nM rhBACE1, competitor probe 5-TAMRA-BACE020
Protocol: BACE1 binding assays were carried out in a final volume of 10 μL per well in black 384-well microplates (Proxiplate-Plus; Perkin Elmer, Waltham, Mass.). […] The reaction was permitted to proceed towards equilibrium for 2 h at ambient temperature prior to fluorescence polarization measurement using Envision (Perkin Elmer). The parallel and perpendicular fluorescent emissions measured in each well at 595 nm (excitation 531 nm polarized light) were used to determine the milli-polarization level (mP) using the following formula: mP=1000*(S−G*P)/(S+G*P) where S=parallel emission, P=perpendicular emission and G=0.65.
The affinities of BACE1 peptide ligands were measured using the abovementioned competition binding FP assay for determining IC₅₀ values with serially diluted peptides. A Caliper assay was used to measure the inhibition of BACE1 enzymatic activity by peptide ligands.

T1 sequence (P56817 22-457 limits assumed): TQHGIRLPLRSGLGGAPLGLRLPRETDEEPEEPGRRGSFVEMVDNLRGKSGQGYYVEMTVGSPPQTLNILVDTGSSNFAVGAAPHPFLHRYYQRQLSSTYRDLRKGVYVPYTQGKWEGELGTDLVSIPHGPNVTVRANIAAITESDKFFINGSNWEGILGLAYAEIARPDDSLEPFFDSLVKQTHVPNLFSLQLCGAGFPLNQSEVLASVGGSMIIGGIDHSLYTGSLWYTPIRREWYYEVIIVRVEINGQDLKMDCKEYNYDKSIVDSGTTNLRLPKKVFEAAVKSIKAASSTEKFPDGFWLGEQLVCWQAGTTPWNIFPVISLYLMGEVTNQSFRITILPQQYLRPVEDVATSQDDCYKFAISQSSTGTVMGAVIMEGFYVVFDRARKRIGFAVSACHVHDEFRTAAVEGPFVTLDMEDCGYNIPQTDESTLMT

Binder	signal/noise ratio [1]	fold improvement of signal/noise ratio over parent BACE017 [2] [fold]	Caliper (MCE) BACE1 activity assay IC50 [3] [nM]	HTRF BACE1 activity assay IC50 [3] [nM]	IC50 [4] [nM]	Caliper (MCE) BACE1 activity assay, EC50 (rate increased) [3] [nM]
NELSPYCRLMGLGCD (not shown: M13 major coat protein; peptide fused to its N-terminus) [phage-displayed peptide BACE019 (SEQ ID NO 15)]	> 20	> 5				
NEESMYCRLLGIGCG (disulfide 7-14; also: displayed on M13 phage as N-terminal fusion to the coat protein, not shown: M13 major coat protein; peptide fused to its N-terminus) [phage-displayed peptide BACE020 (SEQ ID NO 16)]	> 20	> 5				
Ac-NELSPYCRLMGLGCD-NH2 (disulfide 7-14 (inferred), also called BACE-19) [BACE019]			15	10	10	
Ac-NEESMYCRLLGIGCG-NH2 (disulfide 7-14; SMILES CC[C@H](C)[C@@H]1NC(=O)CNC(=O)[C@H](CC(C)C)NC(=O)[C@H](CC(C)C)NC(=O)[C@H](CCCNC(=N)N)NC(=O)[C@@H](NC(=O)[C@H](Cc2ccc(O)cc2)NC(=O)[C@H](CCSC)NC(=O)[C@H](CO)NC(=O)[C@H](CCC(=O)O)NC(=O)[C@H](CCC(=O)O)NC(=O)[C@H](CC(N)=O)NC(C)=O)CSSC[C@@H](C(=O)NCC(N)=O)NC(=O)CNC1=O, also called BACE20; BACE-20) [BACE020]			11	12	11	
Ac-NEASMYCRLLGIGCG-NH2 (disulfide 7-14 (inferred), also called BACE020 Glu3 to Ala) [BACE044]			46		131	
Ac-NEESMYCRLLAIGCG-NH2 (disulfide 7-14 (inferred), also called BACE020 Gly11 to Ala) [BACE051]			18		36	
Ac-NEEHMYCRLLGIGCG-NH2 (disulfide 7-14 (inferred), also called BACE020 Ser4 to His) [BACE056]			3580		4500	
Ac-NEESMACRLLGIGCG-NH2 (disulfide 7-14 (inferred), also called BACE020 Tyr6 to Ala) [BACE047]			93		225	
Ac-NEESMYCRLAGIGCG-NH2 (disulfide 7-14 (inferred), also called BACE020 Leu10 to Ala) [BACE050]			49		186	
Ac-NEESMYCRLLGIGCA-NH2 (disulfide 7-14 (inferred), also called BACE020 Gly15 to Ala) [BACE054]			7		12	
Ac-NEESAYCRLLGIGCG-NH2 (disulfide 7-14 (inferred), also called BACE020 Met5 to Ala) [BACE046]			435		1570	
Ac-NEESMYCRLLGAGCG-NH2 (disulfide 7-14 (inferred), also called BACE020 Ile12 to Ala) [BACE052]			14		39	
Ac-NEESMYCRLLGIACG-NH2 (disulfide 7-14 (inferred), also called BACE020 Gly13 to Ala) [BACE053]			7		37	
Ac-NEEAMYCRLLGIGCG-NH2 (disulfide 7-14 (inferred), also called BACE020 Ser4 to Ala) [BACE045]			304		2340	
Ac-NEESMYCALLGIGCG-NH2 (disulfide 7-14 (inferred), also called BACE020 Arg8 to Ala mutant) [BACE048]			> 10000		> 10000	
Ac-NEESMFCRLLGIGCG-NH2 (disulfide 7-14 (inferred), also called BACE020 Tyr6 to Phe) [BACE055]			11		27	
Ac-NEESMYCRALGIGCG-NH2 (disulfide 7-14 (inferred), also called BACE020 Leu9 to Ala) [BACE049]			1380		7700	
Ac-ESMYC[Cit]LLGIGCG-NH2 (disulfide 5-12 (inferred), also called BACE030 with Arg to citrulline) [BACE060]			772		2300	
Ac-ALYPYFLPISAK-NH2 (also called Peptide 2 of Kornacker et al) [BMS2]					> 10000	26400
Ac-YPYFIPL-NH2 (also called Peptide 4 of Kornacker et al) [BMS4]					> 10000	1760
Ac-ESMYC[Orn]LLGIGCG-NH2 (disulfide 5-12 (inferred), also called BACE030 with Arg to ornithine) [BACE059]			222		512	
KEESIYCRLMGLGCG (not shown: M13 major coat protein; peptide fused to its N-terminus) [phage-displayed peptide BACE018 (SEQ ID NO 14)]	> 20	> 5				
Ac-PEESLYCRLLALGCG-NH2 (disulfide 7-14 (inferred), also called BACE-21) [BACE021]			17	22	25	
Ac-KEESIYCRLMGLGCG-NH2 (disulfide 7-14 (inferred), also called BACE-18) [BACE018]			54	77	102	
Ac-SGPYFIEYMSAV-NH2 (also called BACE10) [BACE010 (Ac-SGPYFIEYMSAV-NH2)]					> 10000	2200
PEESLYCRLLALGCG (not shown: M13 major coat protein; peptide fused to its N-terminus) [phage-displayed peptide BACE021 (SEQ ID NO 17)]	> 20	> 5				
